# Experimental data as given in article doi:10.1101/2023.11.30.569340.
# pKd: −log10 of the molar value.
# Molecular target: EEEV E2 domain B (Eastern equine encephalitis virus)
# Experiment: BLI
row,Substance,pKd
1,VLDLR LA1-8-Fc (Fc fusion),5.85

# Molecular target: EEEV PE6 virus-like particle (VLP) (Eastern equine encephalitis virus, strain PE6)
# Experiment: BLI
row,Substance,pKd
1,S. vulgaris VLDLR LA1-8-Fc (Fc fusion),7.96
2,VLDLR LA1-8-Fc (Fc fusion),8.54
3,VLDLR LA3-4-Fc (Fc fusion),5.41
4,VLDLR LA5-6-Fc (Fc fusion),5.38
5,VLDLR LA2-5-Fc (Fc fusion),7.37
6,VLDLR LA2-3-Fc (Fc fusion),5.74
7,VLDLR LA4-5-Fc (Fc fusion),4.92
8,VLDLR LA1-2-Fc (Fc fusion),6.30
9,VLDLR LA3-5-Fc (Fc fusion),7.49
10,VLDLR LA2-4-Fc (Fc fusion),5.96
11,VLDLR LA3-6-Fc (Fc fusion),7.15
12,VLDLR LA1-3-Fc (Fc fusion),6.44
13,VLDLR LA4-6-Fc (Fc fusion),5.64
